The supplement of paper PMC9428881
± gives the standard error.

Test: background-corrected fluorescence of 3'-dye-labeled ssDNA relative to brightest sequence (3'-GCGCG) (fraction); higher = brighter dye fluorescence (less quenching)
Method in brief: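 Arrays of single-stranded DNA, with a 3' Cy3 or Cy5 dye beside each of 1024 permuted pentamers, were built on glass slides through light-directed phosphoramidite synthesis. They were washed for 2 h at r.t. in acetonitrile and scanned at 532 or 635 nm, once before and once after overnight ethylenediamine/ethanol deprotection. Fluorescence is reported after subtracting unlabeled-oligo background and normalizing to the brightest sequence. Averages cover 10 features per array and at least 3 syntheses.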

Sequence | background-corrected fluorescence (dye: Cy3 (3' terminal)) | background-corrected fluorescence (dye: Cy5 (3' terminal))
TTTTTTGAGCATCATGCTCATTTTTTTTTTTTTTTCTGAG [GAGTC] | 0.621 ± 0.024 | 0.479 ± 0.041
TTTTTTGCGCATGATCATGATTTTTTTTTTTTTTTATCGC [CGCTA] | 0.534 ± 0.017 | 0.439 ± 0.02
TTTTTTGATCAGCAGCATGCTTTTTTTTTTTTTTTCGTTA [ATTGC] | 0.561 ± 0.012 | 0.398 ± 0.052
TTTTTTGATGAGCATGATGCTTTTTTTTTTTTTTTCCTCA [ACTCC] | 0.493 ± 0.0056 | 0.377 ± 0.042
TTTTTTGCTGCTGAGCATCATTTTTTTTTTTTTTTAACTG [GTCAA] | 0.547 ± 0.024 | 0.381 ± 0.029
TTTTTTCATGCGCATCATCATTTTTTTTTTTTTTTGATGG [GGTAG] | 0.62 ± 0.012 | 0.482 ± 0.024
TTTTTGCATCAGCATGATGATTTTTTTTTTTTTTTTGTCC [CCTGT] | 0.401 ± 0.014 | 0.289 ± 0.018
TTTTTGCAGCAGCATCATGCTTTTTTTTTTTTTTTTTTGA [AGTTT] | 0.634 ± 0.029 | 0.524 ± 0.03
TTTTTGCATGAGCATGCTGATTTTTTTTTTTTTTTTCTAC [CATCT] | 0.409 ± 0.017 | 0.296 ± 0.017
TTTTTTGATGCTGCTGCGCATTTTTTTTTTTTTTTCAAAT [TAAAC] | 0.553 ± 0.017 | 0.41 ± 0.061
TTTTTGCATGAGCATCAGCATTTTTTTTTTTTTTTTCTGT [TGTCT] | 0.594 ± 0.015 | 0.433 ± 0.02
TTTTTGCAGCATGAGCATGCTTTTTTTTTTTTTTTTTCTA [ATCTT] | 0.467 ± 0.02 | 0.404 ± 0.036
TTTTTTCATGATCATCATCATTTTTTTTTTTTTTTGCGGG [GGGCG] | 0.701 ± 0.013 | 0.563 ± 0.045
TTTTTTGATGCTCAGCATCATTTTTTTTTTTTTTTCAGTG [GTGAC] | 0.61 ± 0.026 | 0.463 ± 0.025
TTTTTTGATGCTCATGAGCATTTTTTTTTTTTTTTCAGCT [TCGAC] | 0.543 ± 0.022 | 0.418 ± 0.022
TTTTTTGATCATGATCATCATTTTTTTTTTTTTTTCGCGG [GGCGC] | 0.814 ± 0.019 | 0.793 ± 0.047
TTTTTTCATCAGCATCAGCATTTTTTTTTTTTTTTGGTGT [TGTGG] | 0.663 ± 0.02 | 0.511 ± 0.037

Sequence | background-corrected fluorescence (dye: Cy3 (3' terminal)) | background-corrected fluorescence (dye: Cy5 (3' terminal))
TTTTTTGCTGAGCATGAGCATTTTTTTTTTTTTTTACTCT [TCTCA] | 0.421 ± 0.0073 | 0.331 ± 0.022
TTTTTGCATCAGCAGCATGATTTTTTTTTTTTTTTTGTTC [CTTGT] | 0.433 ± 0.0082 | 0.31 ± 0.025
TTTTTGCAGCATGATCATGCTTTTTTTTTTTTTTTTTCGA [AGCTT] | 0.645 ± 0.025 | 0.533 ± 0.067
TTTTTTCATGCGCATGATCATTTTTTTTTTTTTTTGATCG [GCTAG] | 0.545 ± 0.016 | 0.41 ± 0.025
TTTTTTCATGCTGATGATGCTTTTTTTTTTTTTTTGACCA [ACCAG] | 0.499 ± 0.022 | 0.394 ± 0.024
TTTTTTCAGCATGATCATGATTTTTTTTTTTTTTTGTCGC [CGCTG] | 0.556 ± 0.034 | 0.444 ± 0.032
TTTTTGCATGATGAGCATCATTTTTTTTTTTTTTTTCCTG [GTCCT] | 0.475 ± 0.028 | 0.366 ± 0.034
TTTTTGCAGCATGATGCGCATTTTTTTTTTTTTTTTTCAT [TACTT] | 0.519 ± 0.033 | 0.378 ± 0.021
TTTTTTGCTCATGCGCAGCATTTTTTTTTTTTTTTAGATT | 0.565 ± 0.035 | 0.41 ± 0.018
TTTTTTGCGCATCATGCTCATTTTTTTTTTTTTTTATGAG [GAGTA] | 0.602 ± 0.036 | 0.466 ± 0.04
TTTTTTGCTGCGCATCATCATTTTTTTTTTTTTTTAATGG [GGTAA] | 0.645 ± 0.023 | 0.51 ± 0.048
TTTTTTCATCATGAGCAGCATTTTTTTTTTTTTTTGGCTT [TTCGG] | 0.558 ± 0.029 | 0.405 ± 0.023
TTTTTTGCTGCGCATGCTGATTTTTTTTTTTTTTTAATAC [CATAA] | 0.453 ± 0.011 | 0.317 ± 0.019
TTTTTTCAGCATGATGAGCATTTTTTTTTTTTTTTGTCCT [TCCTG] | 0.464 ± 0.02 | 0.346 ± 0.024
TTTTTTGATCATGATGCTGCTTTTTTTTTTTTTTTCGCAA [AACGC] | 0.552 ± 0.031 | 0.443 ± 0.035
TTTTTTGCTGATGAGCATCATTTTTTTTTTTTTTTACCTG [GTCCA] | 0.499 ± 0.023 | 0.384 ± 0.02
TTTTTTGATGATGATGATCATTTTTTTTTTTTTTTCCCCG [GCCCC] | 0.471 ± 0.035 | 0.377 ± 0.026
